In patent publication US20230049152A1:

Molecular target: human CCR8 (human) (UniProt P51685)
Experiment: cell-based or functional assay

ADCC reporter EC50, mFcgRIV Jurkat cells with CHO/hCCR8 (FIG. 11D): 0.28 nM
CCL1 blocking potency IC50, Ca2+ influx: 23.6 nM
induction fold at about 1 nM antibody, mFcgRIV Jurkat NFAT-luciferase reporter: > 10 fold
induction fold plateau at about 40 nM antibody, mFcgRIV Jurkat NFAT-luciferase reporter: 11 fold
Substance: murine anti-human CCR8 mAb L263G8 (Biolegend) (antibody)
